# Assay results from a protein production outcome set (Wang et al. 2014).
# Assay: label from the status in PepcDB records
row,Sequence,protein production
1,MGCGLRKLEDPDESSPGKIFSTLKRPQVETKTEFAYEYALLDFTLQASTNPDVIKINSVLDIVAKVEDYYLKGYVVGAIHPVIQPVGQRKHLPASHLYRAVLSRLKLSPKHSAAGGQRRARLVMEECPLTCEAQANDAAKELMDKINAAAKRGMKFVGLVSQCYLPSMHCNGASHDGVAESGLHVRQDSQDNCKGWNEGALGGHLSESGVEEEPQHESGQHQTERNSSPSYANPKRGEAPDGKLYMVFNAFEEDAASWAYQEGVLSMKVTRKGAVISALDANWLELTTFYYKQGFSLIDSFVCWETPKVAKLEAFQLSVSDKLPKGKQKYSFQSLSGIPASGLA,not failed
2,MGCICFKSWRRSSSSPSITSTVIDDLENVREYDADDDGGHYPLIFREFSLEQLRIATDGFSAGNIVSEHNDSVPNIVYKGKLGDGRRIAVKRFQRLSWPDPFEFINEAQAVGRLRSEHMANLIGCCCDDNERLLVAEYMPNGTLAKHLFHWEKRPMKWEMRLKVALHTARALEYCNDKGIDLYHDLNPYRIMFDKTGIPKLSCFGLMKNSHEGKIYSTNLAFAPPEYLRLGTVIAESVTFSFGTLLLDLMSGRHIPPNHALDLFRGKNYLVLMDSALDGQFSDEDRTELIHVASRCFKTEPEERPSIKFLKATLSRLQKRAKLCPINVKRPMSPPSKNLPEKTKPATESLKLTPFGDACSRADLSSIHELLEKLGYEEDNGVGNEFSFQMWTGEMQENMDYKKHGDAAFLAKDFDTAIEFYTEFMTGAPTVSPTVLARRCLCYLMTEMFSEALSDAMQAQVASPEWPIPLYLQAACLFKLEMEAEAKEALRHGSALEAY,failed
3,MGCLYSKGNVHFSIDDEIYDIKETRKQQQKEKEKEEEEKKLRPSSTPKVEHTWPSKLELSLQHLSQKTQNARKIQAWWRGTLVRRSLLRAALSAWIIQSWWRKILAKRQEKNRLIILHLMAQETRACVLIQSWVRMLKIRQNYCRLCYATRVIQASWRWYNCRTRGFFQGSYELVGNKLRLRLDIFLGSQVCRISDCISLPIKN,failed
4,MGCRATQRESVGFADKIRYTERRFISVFGVPLLIQLICQAPQRAQELEQIAARWQLQASDDSPFALVLSEERLELRKLDEPKLGAIYVDWVEGAVAHRRKFGGGKGQSIAKAAGLNKGVTPVVLDATAGLGRDAFVLASLGCRVQMVERHPVVAALLEDGLQRAKQDDEIGAWVSERISLLHASSHDALQQLASDPNFTSPDVVYLDPMYPHPENKKKTALVKKEMRVFQSLVGADNDADALLEPALQLAQKRVVVKRPDYAPWLGNRKPSMAMETKKNRFDVYVIAAMSGE,failed
5,MGDEDLIELKFRLADGTDIGPSKYSQFMTVASLKEKIIAQWPKDKENAPKMINEVKLINGGKILENNKTLSEARSLITIGELPGIVTTMHVVLRPPLFEKKKEKLQNDPPRKSHCVCCIL,failed
6,MGDIEGINIQSMASEIKKLRHKIETLEQQNSDLEIALTTAVEHGDAIESELFSTNDRLRGEVRERVIAERRLSKVLTVVSQQKDDLEVLVQTITEHSDEIDTQWLSRYSEVEALARLDPLTSIANRRMLDSALEQEWTRSLRSGSPLSVAMCDLDLFKAYNDRYGHNRGDQVLIAFAEILRGCSRRPPDLPARVGGEEFLILFPETDLAGARQVAEAIRLALWTLAIPHADSPHGRVTVSIGLACVFPRPEGDPADLIAQADFRLYEAKAHNRNTVRA,failed
7,MGDKEESKKFSANLNGTEIAITYVYKGDKVLKQSSETKIQFASIGATTKEDAAKTLEPLSAKYKNIAGVEEKLTYTDTYAQENVTIDMEKVDFKALQGISGINVSAEDAKKGITMAQMELVMKAAGFKEVKLEHHHHHH,not failed
8,MGETTVGHVAGEVVRALYGAGYMESTIGQYRKSIRALERYAGGPDAVYTRGLGAGFAASTFSERTGGFSRQRWFDYGRLARLCDSYLRSGSVDLGKWRRSRLAEPVVPGLAVVMERWEAYLAGSGLASATVGHYRRMAGLFLTWLESHGVVSLDGSDGSHVLGFLAGLRSRWSESSMRHAASDLRPLFRWLGRDDLADAIGLAGIRRTHAIAGTLPDDEHRRLLEACASRSVPSRDAAITLLSLTCGLRACDVIGLRIADVDWDSMSIGLVQRKTGNPLTVPMTGPLAARLASWLLDERPATDDDRVFVRYKAPHVALRGHSSVYEAISRVMRHAGLGRRGGSRLLRRNAATRMLEAATPLPTISAVLGHADPDSTRVYMATHRGGMLACVLPVPEGGSS,failed
9,MGEYYHATVNGVVEYGAFVDLSEHVSGLIHESTYSGDPDLAVDDDVIVHLSAVRDNGDLSFEFVDPEEYRTEQRSHAYERTTADAVGLEHHHHHH,not failed
10,MGFADFFKNFKINKLRTAPSKEEQPSHWVKCPKCYALMYHKEVFSKYSVCLKCHYHFRMKAAERIEFLCDVGSFEEFDKHLRPNDPLNFVDKESYKQRIKKYEKRTNRPSSVISGEAKINRMPLQIVVFDFSFMGGSLGSVEGEKIVRAINRAVAKREALLIVSASGGARMQESTYSLMQMAKTSAALNRLSEAKLPFISLLSDPTYGGVSASFAFLGDLIIAEPGAMIGFAGPRVIKQTIGADLPEGFQTAEFLLEHGLIDMIVHRKDLKKTLSDLIAMMTHKTSKIF,failed
11,MGFIMEFAENLVLRLMENPEERDRKAREHIYEMHERCKKIKEMWALPIRPYGFWTFERHNAQLRWDPQISQVAGRRDPYDDLLEDNYTPPSSSSSSSD,failed
12,MGFLDALMGNASEVDLGKLAAELSPILGDNEELQLAYKMVRDLFVFTSKRLILIDKQGVTGKKVSYHSIPYKAIVHFQVETAGTFDMDAELKLWISGQHEPLVKELKRGTDVVGIQKTIARYALG,not failed
13,MGFLEAYKSFWRNYVNFSGRAPRSAYWYVVLWNVIIFVILYALAFIFGISAIMEAAMGGTGMAGGGGAIVLVIILWLYLLAALLPTISLMVRRLHDSGKSGFFVLLSLIPFAGGIIMLIFMCLESDGPNQYGDGDIDSKFDF,failed
14,MGFLESFVSFIVYLASTCGYVGIFILNMLEYACLPFPSEIVLPAIGASVASGKYSMIYALPISVIGGVVGTLISYSVGMYAGKKVISFAKRKHKKSKSIFEKIDRLFSRYGKITVFLARLLPFTRTYISLFAGAEKVNKIMFVIFSALGITIMDSFYLLLGYFAYDNKSFIEKALRHYSIGLIIIIVIAIFSYYIYKNLKLKKLKKEN,failed
15,MGFLHKLWDETVAGPTPDNGLGKLRKHDSLSTVRSSPPSLSSDQVTRSIMVTKGNNNVRGLRKLKMDPDSPTCSSSNPGTPLTPGTPCYALGPFTAGKIPSSGEDDAASLTTYEWIVINALDR,failed
16,MGFYGGGSMASGRPESTGIDSLGIGKILAVYIKDNENLAIDEDKLQLTAELIRVFSASPGRDIVSQVNEDGGGSFSLSLDLQQFKKISDIENFFINLEDNPKGVIPCMNAAVHKVLFDQWETNEFENVMKINVRLHNYPESSISLKNLRAAYIGKLVTVHGTVVKVSTVKPLVTQMAFDCGKCKTGITREFTDGKFSPPLKCDSHGCKSKTFTPIRSSAQTIDFQKIRVQELQKPEDHEEGRVPRTVECELMEDLVDICIPGDVVTVTGIIGVINNYMDIGGGKSKTKNQGFYYLFIEAVSVKNTKRQSAFENSEDSSSSAQTADVGDLYSFSQRDLEFIVKFKEEYGSDTFRRILHSVCPSIYGHEIVKAGITLSLFGGVRKHSMDRNKVPVRGDIHVIIVGDPGLGKSQLLQAAAAISPRGIYVCGNATTRAGLTVAVVKDSMTNDYAFEAGAMVLADGGLCCIDEFDKMTTEHQALLEAMEQQCVSVAKAGLVASLSARTSVIAAANPVGGHYNRAKTVNENLKMSAALLSRFDLVFILLDKPDELLDKQVSEHIMSHHRMLGMQTCMQKGILYFQDCGWTLRKMTTFLRFLANCLGNIFPMHGILMSKDAGEIIQKFYLKLRDHNTSADSTPITARQLESLVRLAQARARVDLREEITVQDAMDVVEIMKESLYDKLIDEHGVVDFGRSGGMSQQKEAKRFLSALDKQSELQQKDCFSVSEMYSLADRIGLRVPDIDTFLENLNIAGYLLKKGPKTYQVLSSSYSRSQSSRSR,failed
17,MGGDSVAIFTADMSVSGELRNDIELHLRRGIESDALRLVYLPEVDLRTGDIVGTEALVRWQHPTRGLLAPGCFIPVAESINLAGELDRWVLRRACNEFSEWQSAGLGHDALLRINVSAGQLVTGGFVDFVADTIGQHGLDASSVCLEITENVVVQDLHTARATLARLKEVGVHIAIDDFGTGYSAISLLQTLPIDTLKIDKTFVRQLGTNTSDLVIVRGIMTLAEGFQLDVVAEGVETEAAARILLDQRCYRAQGFLFSRPVPGEAMRHMLSARRLPPTCILEHHHHHH,failed
